Laboratory results: publication PMC9911311

Target: Adeno-associated virus type 2 (AAV2) capsid viral protein VP3 (adeno-associated virus type 2)
Test: cryo-EM structure

## Adeno-associated virus type 2 (AAV2) capsid viral protein VP3 (natural protein)
  stoichiometry N: 60
